The values below come from patent publication US6379959.

This test has as its target T1, carboxypeptidase A.
T1 sequence (P00730 111-419, species assumed, looked up): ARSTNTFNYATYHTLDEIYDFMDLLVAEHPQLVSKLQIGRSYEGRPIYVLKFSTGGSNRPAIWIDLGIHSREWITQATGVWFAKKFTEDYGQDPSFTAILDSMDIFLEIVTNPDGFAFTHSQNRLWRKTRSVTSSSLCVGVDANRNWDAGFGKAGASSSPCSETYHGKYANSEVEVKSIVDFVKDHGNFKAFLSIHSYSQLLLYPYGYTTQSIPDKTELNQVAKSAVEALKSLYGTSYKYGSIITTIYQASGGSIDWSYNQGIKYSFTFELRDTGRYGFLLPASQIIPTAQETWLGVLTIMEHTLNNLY
The experiment in a line: carboxypeptidase inhibition (Ki); reference wild PCI.

B1: PCIdelY37V38G39 (peptide)
chain: EQHADPICNKPCKTHDDCSGAWFCQACWNSARTCGP
As for B1, the decrease of the inhibitory capacity against the wild form (orders of magnitude) turned out to be 3.
